According to article PMC8881592:

Test: time-resolved SAXS; rSslE 0.7 mg/ml in 20 mM citrate-phosphate buffer pH 4.4, 25 °C, stirred and circulated, data every 30 min over 11 h; COSMiCS decomposition into monomer and aggregate
Details: other: time-resolved SAXS

Substance: recombinant SslE from E. coli W (rSslE; residues 67 to 1497)
- molar fraction of the aggregated species after 30 min: the aggregated species already represented 50% of the molar fraction
